Test results published in paper PMC9381590.

Biological target: endogenous PKM2 (human (endogenous in CRC cells)) (UniProt P14618)
Assay: not stated; monomeric, dimeric and tetrameric forms of endogenous PKM2 in HCT116 cells with or without DDX39B overexpression (Supplementary Fig. 7c)

Sequence of endogenous PKM2, P14618 1-531 (natural protein; other documents disagree on this pair) (P14618 whole entry): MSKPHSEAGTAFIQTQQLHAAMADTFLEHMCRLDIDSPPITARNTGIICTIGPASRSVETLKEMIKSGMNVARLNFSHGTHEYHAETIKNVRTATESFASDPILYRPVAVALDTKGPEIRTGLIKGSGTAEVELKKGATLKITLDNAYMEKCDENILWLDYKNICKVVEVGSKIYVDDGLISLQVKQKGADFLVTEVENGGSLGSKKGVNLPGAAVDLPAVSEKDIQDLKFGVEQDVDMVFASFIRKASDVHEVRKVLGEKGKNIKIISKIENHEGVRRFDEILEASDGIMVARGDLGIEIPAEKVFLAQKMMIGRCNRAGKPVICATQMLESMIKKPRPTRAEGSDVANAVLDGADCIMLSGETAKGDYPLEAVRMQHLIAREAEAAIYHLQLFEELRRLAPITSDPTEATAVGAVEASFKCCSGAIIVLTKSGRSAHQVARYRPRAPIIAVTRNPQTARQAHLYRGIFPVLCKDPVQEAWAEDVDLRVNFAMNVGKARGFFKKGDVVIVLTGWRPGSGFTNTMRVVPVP

For “endogenous PKM2, P14618 1-531 (natural protein; other documents disagree on this pair)”, the stoichiometry N was 2.
